Test results from FireProtDB (doi:10.1006/jmbi.1993.1508).

Conditions: Bacillus amyloliquefaciens; pH 6.3; 25 °C; Urea; Fluorescence; MES 50 mM; reversible: yes; whole UniProt chain shown

B1: Ribonuclease wild type, P00648 (protein)
chain: MMKMEGIALKKRLSWISVCLLVLVSAAGMLFSTAAKTETSSHKAHTEAQVINTFDGVADYLQTYHKLPDNYITKSEAQALGWVASKGNLADVAPGKSIGGDIFSNREGKLPGKSGRTWREADINYTSGFRNSDRILYSSDWLIYKTTDHYQTFTKIR
Q: What does the source list for B1?
A: denaturant m value: 1.92 kcal/mol/M; denaturant midpoint (higher = more stable): 4.58 M; unfolding free energy: 8.82 kcal/mol
